Non-standard residues stand in square brackets, D forms with d. No end group written: not given here. *: point of attachment. Biotin = O=C1N[C@H]2[C@H](CS[C@H]2CCCCC(=O)*)N1; pS = N[C@@H](COP(=O)(O)O)C(=O)O
B2: Swi6-NLS-P peptide (peptide)
peptide: Biotin-GGSGGSRELG[pS]PLKK
notes: flexible linker ([Gly-Gly-Ser]2); By the printed limits the phosphoserine is Ser160; also called phosphorylated Swi6-NLS peptide; phospho-Swi6 peptide; source: synthetic peptide (NEOBioLab), HPLC purified >95%
B4: Whi5-NLS-P peptide (peptide)
peptide: Biotin-GGSGGTP[pS]PP[pS]PPGI
notes: flexible linker; By the printed limits the phosphoserines are Ser59 and Ser62; also called phosphorylated Whi5-NLS peptide; Whi5 phospho-peptide; source: synthetic peptide (NEOBioLab), HPLC purified >95%
B6: CTD-P peptide (phosphorylated peptide corresponding to the CTD of RNAPII) (peptide)
peptide: Biotin-GGSGGSYSPT[pS]PSYS
notes: flexible linker ([Gly-Gly-Ser]2); based on the consensus heptapeptide repeat in the carboxy-terminal domain (CTD) of Rpb1, largest subunit of RNA polymerase II; The phosphoserine is Ser5 of the heptad YSPTSPS; also called phospho-CTD peptide; phosphorylated CTD peptide; source: synthetic peptide (NEOBioLab), HPLC purified >95%
B8: Recombinant S. cerevisiae Ess1 protein (enzyme, UniProt P22696 1-170, looked up)
chain: MPSDVASRTGLPTPWTVRYSKSKKREYFFNPETKHSQWEEPEGTNKDQLHKHLRDHPVRVRCLHILIKHKDSRRPASHRSENITISKQDATDELKTLITRLDDDSKTNSFEALAKERSDCSSYKRGGDLGWFGRGEMQPSFEDAAFQLKVGEVSDIVESGSGVHVIKRVG
notes: Ess1 peptidyl prolyl cis/trans isomerase, S. cerevisiae; also called purified Ess1 protein; Ess1 prolyl isomerase; source: Escherichia coli, purified as described (Li et al. 2005)
B9: Whi5-NES-P peptide (peptide)
peptide: Biotin-GGSGGFL[pS]P[pS]PRLR[pS]PPT
notes: flexible linker; Whi5, S. cerevisiae, residues 152-164 (portion of the nuclear export signal); By the printed limits the phosphoserines are Ser154, Ser156 and Ser161; also called phosphorylated Whi5-NES peptide; Whi5 phospho-peptide; source: synthetic peptide (NEOBioLab), HPLC purified >95%

Legend:
Assay in all cases: BLI; Octet RED, 24°; N-terminally biotinylated peptides immobilised on streptavidin biosensors; Ess1 in solution (3, 10, 30 μM); 20 mM Tris-HCl pH 8.0, 1 mg/mL BSA; no-peptide sensor subtracted; apparent dissociation constants (Kapp) from kinetic and equilibrium data, considering only the predominant faster-dissociating signal; for unphosphorylated peptides Kapp estimated from the signal at 30 μM Ess1
Conditions in all cases: both partners purified
[1] = target: B8
[2] = target: B8; remark: listed apart in the source
Swi6-NLS-P peptide = target: B2
[3] = target: B6
Whi5-NLS-P peptide = target: B4
Whi5-NES-P peptide = target: B9

B1: CTD peptide (unphosphorylated) (peptide)
peptide: Biotin-GGSGGSYSPTSPSYS
notes: flexible linker ([Gly-Gly-Ser]2); based on the consensus heptapeptide repeat in the carboxy-terminal domain (CTD) of Rpb1, largest subunit of RNA polymerase II; also called unphosphorylated CTD peptide; unphosphorylated CTD control peptide; source: synthetic peptide (NEOBioLab), HPLC purified >95%
Q: Which Kd [1] does the source give for B1 here?
A: > 300 µM

Q: With B2 as the binder, how does the koff [2] read?
A: 0.254 s⁻¹

Q: And the Kd [1]?
A: 8.67 µM

B3: Whi5-NLS peptide (unphosphorylated) (peptide)
peptide: Biotin-GGSGGTPSPPSPPGI
notes: flexible linker; source: synthetic peptide (NEOBioLab), HPLC purified >95%
Q: Which Kd [1] does the source give for B3 here?
A: > 25 µM

Q: With B4 as the binder, how does the Kd [1] read?
A: 1.67 µM

B5: Whi5-NES peptide (unphosphorylated) (peptide)
peptide: Biotin-GGSGGFLSPSPRLRSPPT
notes: flexible linker; Whi5, S. cerevisiae, residues 152-164 (portion of the nuclear export signal); source: synthetic peptide (NEOBioLab), HPLC purified >95%
Q: Which Kd [1] does the source give for B5 here?
A: > 1500 µM

Q: How did the Kd [1] turn out when B6 was run?
A: 2.12 µM

B7: Swi6-NLS peptide (unphosphorylated) (peptide)
peptide: Biotin-GGSGGSRELGSPLKK
notes: flexible linker ([Gly-Gly-Ser]2); source: synthetic peptide (NEOBioLab), HPLC purified >95%
Q: Which Kd [1] does the source give for B7 here?
A: > 100 µM

Q: Which “KappEq (equilibrium)” value (Swi6-NLS-P peptide) does the source give for B8 here?
A: 10.1 ± 5.1 µM

Q: And the “KappK (kinetic)” value (Swi6-NLS-P peptide)?
A: 7.25 ± 4.63 µM

Q: And the “KappEq (equilibrium)” value [3]?
A: 1.65 ± 0.06 µM

Q: What about the “KappK (kinetic)” value [3] of the same binder?
A: 2.58 ± 0.65 µM

Q: And the “KappEq (equilibrium)” value (Whi5-NLS-P peptide)?
A: 0.48 ± 0.46 µM

Q: What about the “KappK (kinetic)” value (Whi5-NLS-P peptide) of the same binder?
A: 2.87 ± 0.82 µM

Q: And the “KappEq (equilibrium)” value (Whi5-NES-P peptide)?
A: 1.13 ± 0.18 µM

Q: What about the “KappK (kinetic)” value (Whi5-NES-P peptide) of the same binder?
A: 3.25 ± 0.7 µM

Q: With B9 as the binder, how does the Kd [1] read?
A: 2.19 µM

Source: PMC3962490, “The Yeast Ess1 Prolyl Isomerase Controls Swi6 and Whi5 Nuclear Localization” (G3: Genes|Genomes|Genetics, 2014)
